Results published in publication PMC6760769, “A pull-down and slot blot-based screening system for inhibitor compounds of the podoplanin-CLEC-2 interaction” (PLoS ONE, 2019).

Experiments:
CLEC-2 (Homo sapiens) = CLEC-2 (Homo sapiens) (UniProt Q9P126); details: cited from earlier work
[1] = target: Fc moiety alone (human IgG1 Fc) (human); assay: SDS-PAGE under reducing and non-reducing conditions; purified protein, with or without 2-mercaptoethanol, Coomassie blue staining
[2] = target: T1, C-type lectin-like receptor 2 (CLEC-2) (Homo sapiens, UniProt Q9P126); assay: pull-down of podoplanin (pod-HeLa lysate) with purified Fc-CLEC-2 pre-incubated with compound; slot blot and western blot; assay type: biochemical
T1 construct: gene CLEC1B; extracellular region of CLEC-2 (351–890, NM_016509), human IgG1 Fc-fusion (Fc-CLEC-2); with podoplanin

[3] = target: immunoglobulin Fc domain-CLEC-2 fusion protein (Fc-CLEC-2) (human) (UniProt Q9P126); assay: pull-down; Fc-CLEC-2 or Fc (25 ug/mL) mixed in solution with pod-HeLa lysate (1.5 mg/mL; concentrations varied in some panels) on ice for 2 h, captured on protein A beads, washed 4x with TBST in a centrifugal filter unit, acid elution, SDS-PAGE and western blot with anti-podoplanin
[4] = target: immunoglobulin Fc domain-CLEC-2 fusion protein (Fc-CLEC-2) (human) (UniProt Q9P126); assay: pull-down; standard combination (25 ug/mL Fc-CLEC-2, 1.5 mg/mL pod-HeLa lysate); hematoporphyrin or 2CP pre-incubated with Fc-CLEC-2 for 30 min, 2% DMSO control, in the dark; 10 uL slot-blotted; podoplanin intensity normalised to CLEC-2 intensity

Sequence of immunoglobulin Fc domain-CLEC-2 fusion protein (Fc-CLEC-2) (human) (Q9P126 whole entry, the tested form may be a part): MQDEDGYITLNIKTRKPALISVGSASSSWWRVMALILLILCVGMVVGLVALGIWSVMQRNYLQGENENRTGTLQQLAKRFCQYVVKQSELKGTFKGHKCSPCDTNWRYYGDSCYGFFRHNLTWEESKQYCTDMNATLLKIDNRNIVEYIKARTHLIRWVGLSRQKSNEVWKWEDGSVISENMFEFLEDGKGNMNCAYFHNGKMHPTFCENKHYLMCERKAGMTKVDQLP
T1 sequence (Q9P126 50-229, one chain of several): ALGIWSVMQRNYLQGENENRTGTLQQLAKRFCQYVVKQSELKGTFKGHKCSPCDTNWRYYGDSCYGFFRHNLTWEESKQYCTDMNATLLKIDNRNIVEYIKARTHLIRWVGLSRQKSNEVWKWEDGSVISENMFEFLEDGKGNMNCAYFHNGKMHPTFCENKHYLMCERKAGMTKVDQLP
Sequence of CLEC-2 (Homo sapiens) (Q9P126 whole entry): as the sequence (Q9P126 whole entry, the tested form may be a part) above

For podoplanin (from UniProt Q86YL7), the Kd (CLEC-2 (Homo sapiens)) is listed as 25 µM.

With “Fc moiety alone (human IgG1 Fc) (domain or fragment)” the stoichiometry N [1] was 2.

Molecule `CC1=C(CCC(=O)O)c2cc3[nH]c(cc4nc(cc5[nH]c(cc1n2)c(C)c5C(C)O)C(C)=C4C(C)O)c(C)c3CCC(=O)O` (centres unmarked) [HPy, hematoporphyrin] has an inhibition at 20 µM [2] of about 70%.

B1: podoplanin (full-length, from podoplanin-overexpressing HeLa cells) (natural protein)
chain: ASTGQPEDDTETTGLEGGVAMPGAEDDVVTPGTSEDRYKSGLTTLVATSVNSVTGIRIEDLPTSESTVHAQEQSPSATASNVATSHSTEKVDGDTQTTVEKDGLSTVTLVGIIVGVLLAIGFIGAIIVVVMRKMSGRYSP
B1 showed a percent of podoplanin recovered in the pull-down [3] of under 20% and a percent inhibition of the pull-down by 20 uM hematoporphyrin [4] of 70%.
